Assay results published in the DeepSol protein solubility set.

Test: soluble on expression in E. coli; label from the status in PepcDB or PDB records

Sequence	soluble on expression in E. coli
MSLKALGLSKSTYYHWKHYQTSRHDKQDTILKSQIFEIWKNNYKAYGYPRITIAMRRLGVVIGPNRVYRLMQELGIRSLMGRRFKKPGTHVDYSQRPNLIKNHPIGTIWRADITYLELRPGTWVYLSTIFDQASKQIIAFNIGKEMASKLIIKTLLQALSRASKPTFLHSDMGSQYTSIAYEGLLKRHLIRHSYSKQGYPYDNGPLEAFHSLLKREFIFQTRFTSFEDLVLRVENYINWYNTERIRINEGHHHHHH	not soluble
MSLGNFHTMLDALLEDQEEAVLATIVQVEGSAYRKAGASMLFKKKGRRIGLLSGGCVEEDVFQRISALGDQLTSTLIPYDMRSEDDLSWGMGAGCNGIIHVHAERITQEKRRHYEKVRDCLHSGKAVTSVIKIESSHYLFLTENGHFGNWPDAPLQDIQRTVSTLHLPHFDQTTNMFIQRIEPKPRLILFGAGPDNVPLANLAADTGFSVIVTDWRPAYCTSSLFPKADQLITAFPEQMLSEFQFFPHDAAVVATHHYQHDQTIINFLFSQNLHYIGLLGSANRTKRLLSGKHPPSHFYSPVGLKIGAEGPEEIAVSVVAEIIQTRKRVAVVEGGSHHHHHH	soluble
MSAATYRKLTSANLLDPVRCRLLISRNRCRVTGVKVPNPLKKVSNFFWRYRAPQAAPGHANPAYFPEADNFED	not soluble
MRSAVSKVEESIEVAVPVSTAYNQWTQFEEFPQFMGGVERIEQQTATLTHWVTKVGGVTREFDAEIVEQIPDEQVSWTTVGGDVHQAGVVTFHRLDDRRTKVMLQMDHDSKGVVDAVGDKLGVVKHQVSEDLKRFKSFIENRGLEHHHHHH	not soluble
MLSYRHAFHAGNHADMLKHFTLFLVLQYFNRKDKPYWYIDTHGGAGVYNLEGSEAQKVGEYRQGIALLRQAQNLPAELSDFAAHIQKILPSPKLYCGSPWLAQSLTRVGDKLRLFELHPTDFVHLQNNMGEAGLGKRGQVLREDGYKGLISLLPPPPRRATVLIDPPYEEKQDYRRVTETLKAALKRFESGCYLIWYPCLSREESRKLPEELKKLLPDNYLHAELHVHAPKADGFGMHGSGMFVINPPYLLAEQLAANLPALTRLLAQDEGSRYLLDSKIR	not soluble
MSLAITTSPPTVSDTKRIFYANYKKLLLPLYNTPIQNMLVKQHIHRYNKNYTYSDVSALGIVTTLDSVLNTFPDDEKTSIKNAFIISLNEDPEMYYSNIESLKPYAKSSHLGPNKHGNTLQKSLYDIAINDKYVYSSFAAVGIFKLLQMNGNYTGNSVKHLSESIGFKGELVHKDIATFFSLLKYIESSQKLADDIREESLKREGHHHHHH	soluble
MRQQNGWVLKGGTNIYCRIPGARQTKDLDLYRRDDPTSSTGAAESLVSAMNGYKIGPYIFHVIHPRQSGGVGTVDSERIDVTVIHGINNRLVSFGVDVSGDLEVTGTVEPVTVATSYKVHTEFLPQRFKVYSYPVASQIADKICAMYERHGNTPPGRASTRYHDLYDVALMARELTVSAFDLRSALDTQCRVRNMSLPNHLTIPDESWKDQYPIKARNFGDEQWGLTELDEALRVAGLLINPILNREFKESDRAWNCTALLWE	not soluble
MGSDKIHHHHHHMNLVMEKTFEQYEKLFSMEEQKREDVFRYTMMRPFEKMWTAIQVPLKAKEPNGYDVIMAAKMLGYLDVRDAESGQKALQILKESHVSETAESALRQCIFFAEREQLRVNAKEIKFGLYIADPNKLQLQKGYCGFGGIPGFIHVWINPNSYNLPRIPSIIAHEFHHNVRFSYIDFHHGSVSVGDYLVIEGLAESFARELFGTERLGPWVTRFDHEDLQYSIDVINEVLDVKGFSEVSRYMFGDPIANDQGFKPAGLSAFAGYAVGYHAVQSFMNQHHITISEATRLDAKTIISQCGLFLHEKSVTYSGAF	not soluble
MGSDKIHHHHHHMKMTDPLYGTFEIEPVLAELIQSPLVSRLAHVHQGGSSYLVNPLWDLSRLDHSIGVMLFIRKFGGSLEEQIAGLLHDVSHTAFSHVVDYALDFEEEDYHEQIFEDFVKTSTIPAILEKYGYSFEGIFDDISKWKILEQEAPELCADRIDYTLQDLYRHRKISLAEVEEFLQALVMVDGRLYLANIALAEWFVAQYYSEVIDYFYDPLNVYSYEILAEAMRIAFQQETITTADLRLTDTELLAKLNANSDAREKIQLLASAHLEENEADFTYHHKKKMRLINPSILVDGRLIPADELSEKVRKMNDWASERSKHGIYIKATKKSKQ	not soluble
MGSDKIHHHHHHYQQQYKMAVHVTPESENDPEWPSKKKWFDASEWLSTPQYIKINDFYVINTRYVPIGDLNSDQIIFYLKKGINGSEKRFSELSVLSDLDNQEFRELMKDKLSSEYLETQFEKETLTPTIDFFLIYFIYNNKRYEVPIRREYSGNKYHYWVLEGSVKKAGYWHERFPTSYSYRKYLNK	not soluble
SLENYWVDERTLVVSGDFFGVSTGLLGGWKRVRHAFNHTVSEEFHSMEPAEYLRKVARGYGLKSYFGLLTSVPIEKLSVKGCGEVTVFATAGVMNPNERVGTINIIAVFECRMSRAAMLNAIITATEAKTKALLEEGHNFTGTNTDAVVVLCTQKGGYHRYCGPASEVGQKLWRCAGEAVKDSLARW	soluble
SDIELIHCGADLVERMMNDIRQAASSVHMMFFIMKNDEVSHNMYTLLKTKAQAGVSVYLLLDWAGCRAIKKTALQTMKNAGVHVHVMNRPRFPFFFFHMQKRNHRKITVIDGKIGYIGGFNIAEEYLGKKAKFGNWEDYHLRMIGEGVHDLQTLFASDLKRNTGIELGSDVWPKLQQGTISHKIYATDGYSLENIYLANIAQAKNRLTVCTPYYIPSKPLQEALINARKNGVSVRIIVPMKSDHPLVREAAFTYYSELLDAGCLIYRYYQGFYHVKALIIDDHLSIIGTANFDKRSLFLNEEVNVEIDDEAFTSEVYATIEEDMKKSELLTMEDFSKRTFRQRPAEWLGR	not soluble
MGSDKIHHHHHHMRNSNLSKKPFIITIASTKGGSAKSTNAANIGAFCADHGLKTLLIDTDTQPTLSAYFALNYVAPGGIHEFLTYQDVEPSHIISKTTLSNLDLIQSNDPTNNVSQMLRNAPDGAIRFSFLLKKLKGYDVIIVDTRGTRDITVDMSVLAADLLFCPILPHILSAKEFIRGTMGMYQELQTFEAFGFSLPPLKAVPNCVDHTNDVKFVLGHLKQLFEQNLSADKTLLDFHIPNKVAYREAATYSLPVYRHSKAEYVVIQALCMHLLPQFAHQFEQGLSGHLGGHNV	not soluble
MTSSDSNVDPGLGIAVDLGTTTLAASLVDLSSGERLASAGSLNPQREFGADVVSRLDAACRSGEALQRMAALVREELYRLAARLLDSAGEARDRLRMVAVAGNPAMEHLLLGLPVVRLAYPPYRPLFSTSTHISAADLGWDLSGRVALFPLPGGFVGGDTVAFLFGVPDVCAPCPGPRLFLDMGTNGEMVLQCGDVLLGTSAAAGPAFEGGGLACGMAALPGAVNGIIRDGDRVRVTTIGGGQPLGICGSAVLDTVALLLEEGLLDSTGRLLPPEEIASPVGARMGTVGGEPAFILHRDAARTIYLSQGDIRQVQLAKGAIRAGMEVLCERARIRCEDIEEVVLTGSFGAVLSPRSLKFIGIFTEKMVQTTRFVREGALAGAERALTAPEGFEAVDRLARALRVIPLSGTPAFEKHFLKHIDFPSRLEHHHHHH	soluble
MSIFDHYQSRYEAAKDEEMSLQEFLALCKDDKSAYANAAERLLMAIGEPEIIDTAKDPRLSRIFSNRVISRYETFKDFYGMEDAIEQIVSYLKHAAQGLEERKQILYLLGPVGGGKSSLAEKLKSLMEAMPIYVLSANGERSPVNDHPFCLFKATEDGEILKTDYGIEQRYLRSIMSPWAAKRLHEFGGDITKFKVMKVRPSILDQIGIAKTEPGDENNQDISSLVGKVDIRKLEHYSQDDPDAYSYSGALCKANQGLMEFVEMFKAPIKVLHPLLTATQEGNFNGTEGLSAIPFDGMILAHSNESEWQTFRNNKNNEAFLDRVYIVKVPYCLRVSEEVKIYQKLLENSELSQAPCSPSTLETLAQFSILSRLKEPENSS	not soluble
MGSDKIHHHHHHMNKLNFKGSVMLNPTPVVLVTSKDKSQNLNVFTVGWVSTVCTKDPIIAMGIRPERLSYQYIKESCECVINLPTTSMVKIVDYCGVVSGRRVDKIKHFSLPLNDGVSISTPSLENCPVALECKVKSVTPLGTHDLFLLQVLNVKIDETLLDKNNKICFNKANLMCYNHGEYYGLNSKPIGSFGFSVKKKTKKIHRRKKGD	not soluble
MTLDLPELPFPLRPYGPDGRWSYADGVLTGVAGSRQDRFVPPTGESLESVSDAPRLLGAPDGDFQLIARVSVGFRGAFDAGVLYVHVGERAWAKLCLEYSPDVPTVCTVVTRGHSDDCNSFTVEGDSVWFRVSRTGRAFAFHASLDGERWTFVRLFTLGDEEETGSALVGFLAQAPTGEGCTVTYDHLEFRPAWPADLRDGSLEHHHHHH	not soluble
MLNLSRLSRKLLGWLGRPLSAAHSGEVRQRGPQTHVIILDGTMSTLEPGRETHAGQTYRLMCEMGARVSVFYEAGVQWTSWRTTPDVMMGRGLNRQIRRAYGYLASRYRPGDRIFLIGYSRGAYAVRSLAGVIDMVGLLKAEHATVRNIRQAYRHYECDVQGPHAQVFRDLYCHRDVMIEMVGVWDTVKALGLRLPVLWRLSEQRHAFHSHHLGRSVRHGYHALALNETRNVFEPILWDCKPEFRGHVEQVWFRGTHGDVGGQLGGDERARPLANLSLVWMLERAEHLGLPLPKDWHARFPTDPNAPSVGTWSGWGKIFLLRSARTVGRDPSERLHESVIGDTLPEGLPAPYLRSRSFGLEHHHHHH	soluble
MRKIKIGLALGSGAARGWSHIGVINALKKVGIEIDIVAGCSIGSLVGAAYACDRLSALEDWVTSFSYWDVLRLMDLSWQRGGLLRGERVFNQYREIMPETEIENCSRRFAAVATNLSTGRELWFTEGDLHLAIRASCSIPGLMAPVAHNGYWLVDGAVVNPIPISLTRALGADIVIAVDLQHDAHLMQQDLLSFNVSEENSENGDSLPWHARLKERLGSITTRRAVTAPTATEIMTTSIQVLENRLKRNRMAGDPPDILIQPVCPQISTLDFHRAHAAIAAGQLAVERKMDELLPLVRTNI	not soluble
HFVIRSPEDGANLVMEDMRFLTQEHFVCLYLNTKNQVIHKRTVFIGSLNSSIVHPREVFKEAFKRSAASFICVHNHPSGDPTPSREDIEVTRRLFECGNLIGIELLDHLVIGDKKFVSLKEKGYL	not soluble
LPPGWQSYLSPQGRRYYVNTTTNETTWERPSSS	soluble
MPLPPDITFDSLALIKMHSQNMKRILEVTLAKFTVNLSIVTVYRYLTARAYLKKNIEAEFEILKDIYNIVPLLDDIAIKAAQIEANLIKKEITLDMEDIITATTAIYTNSLLVTDDPKRYEPIRRFGLDTMPLDKFIKEVELMVEKELI	soluble
MSRCPEDSRTGNGRNGAPDPGELSAMVRKLEIRSRRLVNELFSGEYHSSFKGRGIEFSQVREYQYGDDVRTIDWNTSAHKNDLYVKIFTEERERILMLVLDGSGSMLFGSGRLKKELAAEVSAILAFSAVQNNDMVGLLVFSDTVETYIPPRKGRAHALVILNEIFSMRQCGRKTDIDAALSFLRRTQKRKSIIFLLTDLLGSEYERGMKLLNARHEFVLIHIGDPLDHELPHSGLLDLVDPETGERLTIDAGSRAFLARYAKEQRAKREAVQRQLSRMKVDAVFLDTGKSIIGGLNAFFRHRERKV	not soluble
MHHHHHHSSGRENLYFQGERVFGCDLGEHLLNSGFEVPQVLQSCTAFIERYGIVDGIYRLSGVASNIQRLRHEFDSEHVPDLTKEPYVQDIHSVGSLCKLYFRELPNPLLTYQLYEKFSDAVSAATDEERLIKIHDVIQQLPPPHYRTLEFLMRHLSLLADYCSITNMHAKNLAIVWAPNLLRSKQIESACFSGTAAFMEVRIQSVVVEFILNHVDVLFSGRISMAMQE	soluble
